Data from US20160152995A1, “METHODS AND COMPOSITIONS TO IMPROVE THE SPREAD OF CHEMICAL SIGNALS IN PLANTS” (PIONEER HI-BRED INTERNATIONAL, INC., priority 2013, published 2016).

System: E. coli assay strain Km3
Format: cell-based
Details: for 0.2 ppm 48 hr (colony color intensity) / Control 84 hr (colony color intensity, background): M9 assay plates, ImageJ colony color intensity; for 0.2 ppm 48 hr (colony color intensity): 0.2 ppm chlorsulfuron, 48 hr at 30° C.; for Control 84 hr (colony color intensity, background): no inducer, 84 hr at 30° C.; for 0.2 ppm 48 hr/Control 84 hr: ratio of colony color with 0.2 ppm chlorsulfuron at 48 hr over no-inducer control at 84 hr; for IND = induction with 200 ppb Cs at 24 hrs (blue colony color intensity thru ImageJ analysis) / F. IND = fold induction: induction with 200 ppb Cs at 24 hrs/repression at 48 hrs / REP = repression measured without inducer after 48 hrs (blue colony color intensity thru ImageJ analysis): library L8 hits, M9 Xgal colony assay; for IND = induction with 200 ppb Cs at 24 hrs (blue colony color intensity thru ImageJ analysis): 200 ppb Chlorsulfuron; for F. IND = fold induction: induction with 200 ppb Cs at 24 hrs/repression at 48 hrs: ratio IND (200 ppb Cs, 24 hrs) / REP (48 hrs)
Procedure: Library L6 was assembled, rescued, ligated into pVER7314, transformed into E. coli KM3 and plated out onto LB carbenicillin/kanamycin, and carbenicillin only control media as before. Library plates were then picked into 42 384-well microtiter plates (˜16,000 clones) containing 60 μl LB carbenicillin (Cb) broth per well. After overnight growth at 37° C. the cultures were stamped onto M9 assay plates containing no inducer, 0.2 ppm, and 2.0 ppm chlorsulfuron as test inducer. Following incubation at 30° C. for ˜48 hrs, putative hits responding to chlorsulfuron treatment as determined by increased blue colony color were re-arrayed into six 96-well microtiter plates and used to stamp a fresh set of M9 assay plates to confirm the above results. For a more detailed analysis of the relative induction by chlorsulfuron, digital photographs were taken of the plates after various time points of incubation at 30° C. and colony color intensity measured using the digital image analysis freeware program ImageJ (Rasband, US National Institutes of Health, Bethesda, Md., USA, rsb.info.nih.gov/ij/, 1997-2007). […] From this analysis sequence-activity relationships were derived. […] Briefly, C at position 100, and Q at positions 108 and 109 strongly correlated with activation, while R at position 138, L at position 170, and A or G at position 173 were highly preferred in clones with the lowest background activity. […] This information will aid in the design of further libraries to improve responsiveness to chlorsulfuron.
Library L8 construction and screening. Fourth round shuffling incorporated the best diversity from Rd3 shuffling (BB1860) as well as computational diversity (Table 14). As diversity was very high the library oligo mix was spiked into the parental hit variant oligo mix (5, 10, and 25% mixes) to titer down the number of residue changes per clone. In addition, to varying residues for Cs activity, seven residues (C68, C86, C88, C121, C144, C195, and C203) were varied with TetR family phylogenetic substitutions in an attempt to reduce the number of cysteine residues in the repressor. The PCR assembled libraries were cloned Sac1/Asc1 into pVER7334. This plasmid encodes PBAD promoter controlled expression of a plant optimized TetR DNA binding domain fused to the wt ligand binding domain of TetR(B) encoded by native Tn10 sequence on a Sac1 to Asc1 fragment. Approximately 15,000 clones were screened for blue colony color on the M9 Xgal assay plates +/−200 ppb Chlorsulfuron (Cs). Clones were ranked by ratio of color with inducer after 24 hrs incubation over colony color without inducer for 48 hrs of incubation. The sequence trend in the overall larger population of hits (first re-array) was that L55, R104, W105 and L170 were maintained while the C144A substitution was highly preferred. Sequence trends within the hit population were then noted with respect to repression, induction and fold induction (which corrects for leakiness).
Mutagenesis reactions were transformed into library strain Km3 and 96 colonies tested for substitution by DNA sequence analysis. Substitutions representing each possible residue at each position were then re-arrayed in triplicate onto M9 X-gal assay plates with 0, 20 and 200 ppb Chlorsulfuron. Plates were incubated at 37° C. for 24 and 48 hrs prior to imaging. Residue substitutions were then ranked by activation (emphasis on 20 ppb Cs) and repression characteristics (emphasis on 48 hr time point). The mutation with the greatest impact on activity was substitution of residue N82 to phenylalanine or tyrosine. […] All other preferred substitutions shown in Table 18 either improved repression or improved sensitivity to inducer without compromising repressor function. Certain residues were indispensible to function such as R104, W105, and W174 as substitutions were not allowed. Other residue positions such as R138 and K177 were also flagged as critical since functional substitutions were extremely limited. […]

B1: L6-1B03 (protein)
chain: MGSRLDKSKVINSALELLNEVGIEGLTTRKLAQKLGVEQPTLYWHVKNKRALLDALAIEMMDRHATHICPLEGESWQDFLRNNAKSMRCALLSHRDGAKVCLGTRWTEQQYEAAENMLAFLCQQGFSLENALYAVSAVRVFTLGCVLFDQESQVAKEERETPTTASMPPLLRQAWELKDHQGAEPAFLFGLELIICGLEKQLKCESGS
modifications: Sulfonylurea responsive repressor
0.2 ppm 48 hr (colony color intensity): 30.0 | Control 84 hr (colony color intensity, background): 6.6 | 0.2 ppm 48 hr/Control 84 hr: 4.6

B2: L6-6F07 (protein)
chain: MGSRLDKSKVINSALELLNEVGIEGLTTRKLAQKLGVEQPTLYWHVKNKRALLDALAIEMMDRHATHLCPLEGESWQDFLRNTAKSMRCALLSHRDGAKVCLGTRWTEQQYESAENMLAFLCQQGFSLENALYAMSAVRVFTLGCVLFDQESQVAKEERETPTTASMPPLLRQAWELKDHQGAEPAFLFGLELIICGLEKQLKCESGS
modifications: Sulfonylurea responsive repressor
0.2 ppm 48 hr (colony color intensity): 11.6 | Control 84 hr (colony color intensity, background): 5.1 | 0.2 ppm 48 hr/Control 84 hr: 2.3

B3: L6-2C09 (protein)
chain: MGSRLDKSKVINSALELLNEVGIEGLTTRKLAQKLGVEQPTLYWHVKNKRALLDALAIEMMDRHQTHYCPLEGESWQDFLRNTAKSMRCALLSHRDGAKVCLGTRWTEQLYETAENQLAFLCQQGFSLENALYAMSAVRVFTLGCVLFDQELQVAKEERETPTTASMPPLLRQAWELKDHQGAEPAFLFGLELIICGLEKQLKCESGS
modifications: Sulfonylurea responsive repressor
0.2 ppm 48 hr (colony color intensity): 13.6 | Control 84 hr (colony color intensity, background): 5.2 | 0.2 ppm 48 hr/Control 84 hr: 2.6

B4: L6-5F05 (protein)
chain: MGSRLDKSKVINSALELLNEVGIEGLTTRKLAQKLGVEQPTLYWHVKNKRALLDALAIEMMDRHATHICPLEGESWQDFLRNNAKSMRCALLSHRDGAKVCLGTRWTEQQYEAAENQLAFLCQQGFSLENALYAVSAVRVFTLGCVLFDQELQVAKEERETPTTASMPPLLRQAWELKDHQGAEPAFLFGLELIICGLEKQLKCESGS
modifications: Sulfonylurea responsive repressor
0.2 ppm 48 hr (colony color intensity): 22.0 | Control 84 hr (colony color intensity, background): 5.4 | 0.2 ppm 48 hr/Control 84 hr: 4.1

B5: L6-4D10: library L6 clone, parent of library L8 hits (protein)
chain: MGSRLDKSKVINSALELLNEVGIEGLTTRKLAQKLGVEQPTLYWHVKNKRALLDALAIEMMDRHQTHYCPLEGESWQDFLRNNAKSMRCALLSHRDGAKVCLGTRWTEKQYESAENMLAFLCQQGFSLENALYAVSAVRVFTLGCVLFDQESQVAKEERETPTTASMPPLLRQAWELKDHQGAEPAFLFGLELIICGLEKQLKCESGS
modifications: Sulfonylurea responsive repressor
notes: library L6 clone, parent of library L8 hits
0.2 ppm 48 hr (colony color intensity): 18.4 | Control 84 hr (colony color intensity, background): 5.0 | IND = induction with 200 ppb Cs at 24 hrs (blue colony color intensity thru ImageJ analysis): 0.2 | F. IND = fold induction: induction with 200 ppb Cs at 24 hrs/repression at 48 hrs: 0.4 | REP = repression measured without inducer after 48 hrs (blue colony color intensity thru ImageJ analysis): 0.6 | 0.2 ppm 48 hr/Control 84 hr: 3.7

B6: L6-5G06 (protein)
chain: MGSRLDKSKVINSALELLNEVGIEGLTTRKLAQKLGVEQPTLYWHVKNKRALLDALAIEMMDRHQTHYCPLEGESWQDFLRNNAKSMRCALLSHRDGAKVCLGTRWTEQQYETAENQLAFLCQQGFSLENALYAVSAVRVFTLGCVLFDQELQVAKEERETPTTASMPPLLRQGWELKDHQGAEPAFLFGLELIICGLEKQLKCESGS
modifications: Sulfonylurea responsive repressor
0.2 ppm 48 hr (colony color intensity): 34.4 | Control 84 hr (colony color intensity, background): 7.0 | 0.2 ppm 48 hr/Control 84 hr: 4.9

B7: L6-5H06 (protein)
chain: MGSRLDKSKVINSALELLNEVGIEGLTTRKLAQKLGVEQPTLYWHVKNKRALLDALAIEMMDRHQTHICPLEGESWQDFLRNNAKSMRCALLSHRDGAKVCLGTRWTEKQYETAENMLAFLCQQGFSLENALYAVSAVRVFTLGCVLFDQELQVAKEERETPTTASMPPLVRQAWELKDHQGAEPAFLFGLELIICGLEKQLKCESGS
modifications: Sulfonylurea responsive repressor
0.2 ppm 48 hr (colony color intensity): 13.7 | Control 84 hr (colony color intensity, background): 5.1 | 0.2 ppm 48 hr/Control 84 hr: 2.7

B8: L6-3H02: SuR polypeptide, SEQ ID NO:94 (protein)
chain: MGSRLDKSKVINSALELLNEVGIEGLTTRKLAQKLGVEQPTLYWHVKNKRALLDALAIEMMDRHATHYCPLEGESWQDFLRNTAKSMRCALLSHRDGAKVCLGTRWTEQHYESAENMLAFLCQQGFSLENALYAVSAVRVFTLGCVLFDQESQVAKEERETPTTASMPPLVRQAWELKVHQGAEPAFLFGLELIICGLEKQLKCESGS
modifications: Sulfonylurea responsive repressor
0.2 ppm 48 hr (colony color intensity): 15.8 | Control 84 hr (colony color intensity, background): 5.6 | 0.2 ppm 48 hr/Control 84 hr: 2.8

B9: L6-2D07 (protein)
chain: MGSRLDKSKVINSALELLNEVGIEGLTTRKLAQKLGVEQPTLYWHVKNKRALLDALAIEMMDRHQTHFCPLEGESWQDFLRNTAKSMRCALLSHRDGAKVCLGTRWTEQQYETAENMLAFLCQQGFSLENALYAMSAVRVFTLGCVLFDQESQVAKEERETPTTASMPPLVRQAWELKDHQGAEPAFLFGLELIICGLEKQLKCESGS
modifications: Sulfonylurea responsive repressor
0.2 ppm 48 hr (colony color intensity): 20.0 | Control 84 hr (colony color intensity, background): 5.8 | 0.2 ppm 48 hr/Control 84 hr: 3.4

B10: L6-5H12 (protein)
chain: MGSRLDKSKVINSALELLNEVGIEGLTTRKLAQKLGVEQPTLYWHVKNKRALLDALAIEMMDRHATHYCPLEGESWQDFLRNNAKSMRCALLSHRDGAKVCLGTRWTEKQYETAENQLAFLCQQGFSLENALYAMSAVRVFTLGCVLFDQELQVAKEERETPTTASMPPLVRQAWELKDHQGAEPAFLFGLELIICGLEKQLKCESGS
modifications: Sulfonylurea responsive repressor
0.2 ppm 48 hr (colony color intensity): 23.7 | Control 84 hr (colony color intensity, background): 5.7 | 0.2 ppm 48 hr/Control 84 hr: 4.2

B11: L8-3F09 (protein)
chain: MARLDKSKVINSALELLNEVGIEGLTTRKLAQKLGVEQPTLYWHVKNKRALLDALAIEMMDRHQTHYSPLEGESWQDFLRNNAKSLRCALLSHRDGAKVCLGTRWTEQQYESAENMLAFLTQQGFSLENALYALTAVRVFTLGWVLFDQESQVAKEERETPTTDSMPPLLRQAWELKDHQGAEPAFLFGLELIIAGLEKQLKRESGS
modifications: Sulfonylurea responsive repressor
IND = induction with 200 ppb Cs at 24 hrs (blue colony color intensity thru ImageJ analysis): 5.6 | F. IND = fold induction: induction with 200 ppb Cs at 24 hrs/repression at 48 hrs: 9.7 | REP = repression measured without inducer after 48 hrs (blue colony color intensity thru ImageJ analysis): 0.6
